The text below walks through data of patent publication US20230174652A1 (Regeneron, published 2023).

One test deals with T1, hCD28.mmH (human).
T1 construct: also called human CD28 with a C-terminal myc.myc hexahistidine tag
The test can be described thus: SPR (Biacore T-200), mAb captured by anti-human Fc, hCD28.mmH injected, 25°C. (In general: SPR reads the build-up and loss of mass on a sensor chip optically.)

For test [1], the target named is T2, human CD22 on cells (human, UniProt P20273 20-847).
T2 construct: whole, on cells; also called hCD22; CD22 on Nalm6 cells
The test can be described thus: flow cytometry on Nalm6 cells (human CD22). Background: Flow cytometry measures light scatter and fluorescence of single cells or particles in a stream.
Method: (§1) Flow cytometric analysis was utilized to determine binding of CD22×CD28 bispecific antibodies to human CD22 expressing Nalm6 cells and human CD28 expressing Jurkat cells and to cynomolgus monkey T (CD28+) and B (CD22+) cells. […] After incubation, the cells were washed twice with cold PBS containing 1% filtered FBS and a PE-conjugated anti-human secondary antibody was added to the cells and incubated for an additional 30 minutes. An additional phenotyping antibody cocktail (anti-CD2, anti-CD20, anti-CD16, anti-CD14) was added to wells with cynomolgus monkey PBCMs. Wells containing no antibody or secondary only were used as a control.
(§2) After incubation with secondary antibody, cells were washed, re-suspended in 200 μL cold PBS containing 1% filtered FBS and analyzed by flow cytometry on a BD LSR_Fortessa. Cynomolgus monkey T cells were identified as CD2+/CD16− and B cells as CD20+. EC₅₀ values for FACS binding were calculated using 4-parameter non-linear regression analysis in Prism software.

A further test deals with T3, hCD22.mmH (human, UniProt P20273 20-687).
T3 construct: also called REGN5140; recombinant human CD22
The test can be described thus: SPR (Biacore), mAb captured by anti-human Fc, hCD22.mmH injected, 25°C.

Test [2] addresses T4, human CD20 on HEK293/hCD20 cells (human, UniProt P11836 1-297).
T4 construct: whole, on cells; Used as a cell line negative for CD28 and CD22; also called negative cell line for CD28 and CD22
T4 sequence (looked up): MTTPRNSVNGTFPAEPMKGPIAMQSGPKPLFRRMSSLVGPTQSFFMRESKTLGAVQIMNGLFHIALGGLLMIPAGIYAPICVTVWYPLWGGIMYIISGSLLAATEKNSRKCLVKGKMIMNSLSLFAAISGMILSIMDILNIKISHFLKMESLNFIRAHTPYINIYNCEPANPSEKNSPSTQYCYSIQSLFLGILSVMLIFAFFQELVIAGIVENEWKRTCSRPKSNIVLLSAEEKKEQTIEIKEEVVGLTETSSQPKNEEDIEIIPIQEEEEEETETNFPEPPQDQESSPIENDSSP
The test can be described thus: flow cytometry on HEK293/hCD20 cells (negative for CD22 and CD28), geometric mean MFI of APC.
Method: (§3) Briefly, human CD4+ T-cells, HEK293/hCD20, HEK293/hCD20/hCD22 and Raji/CD80 and CD86 negative cells were resuspended in staining buffer containing D-PBS+2% FBS. […] A negative control sample was included containing no antibody. Cells were washed once with cold staining buffer and incubated for 30-45 minutes with Allophycocyanin (APC) labeled anti-human secondary antibody. After incubation, cells were washed once with cold D-PBS buffer without FBS and incubated with LIVE/DEAD Fixable Green Dead Cell Stain (Invitrogen) according to manufacturer's instructions to discriminate between live and dead cells. Cells were then fixed in BD Cytofix Buffer according to manufacturer's instructions, washed, re-suspended in staining buffer, and analyzed by flow cytometry on an iQue Screener flow cytometer. For EC₅₀ determinations, geometric mean fluorescence intensity (MFI) values were analyzed using a four parameter logistic equation over a 9-point response curve using GraphPad Prism. Fold binding was calculated using the following equation:

Test [3] addresses T5, human CD22 (human, UniProt P20273 20-847).
T5 construct: whole, on cells; also called hCD22
The test is described as follows: flow cytometry on Raji/CD80 and CD86 negative cells.
Method: as §3

Test [4] addresses T5, human CD22. The test is described as follows: flow cytometry on HEK293/hCD20/hCD22 cells.
Method: as §3
Test [5] concerns the target T2, human CD22 on cells. The test can be described thus: flow cytometry on HEK293/hCD20/hCD22 cells, geometric mean MFI of APC.
Method: as §3
The target of another test is T6, human CD28 on cells (human, UniProt P10747 19-220).
T6 construct: whole, on cells; also called CD28 on Jurkat cells; CD28 on human CD4+ T-cells
The test can be described thus: flow cytometry on Jurkat cells (human CD28).

Test [6] has as its target T7, Monkey CD22.mmH (EHH59463.1) (monkey (cyno)).
T7 construct: also called REGN5281; mfCD22.mmH
T7 chain: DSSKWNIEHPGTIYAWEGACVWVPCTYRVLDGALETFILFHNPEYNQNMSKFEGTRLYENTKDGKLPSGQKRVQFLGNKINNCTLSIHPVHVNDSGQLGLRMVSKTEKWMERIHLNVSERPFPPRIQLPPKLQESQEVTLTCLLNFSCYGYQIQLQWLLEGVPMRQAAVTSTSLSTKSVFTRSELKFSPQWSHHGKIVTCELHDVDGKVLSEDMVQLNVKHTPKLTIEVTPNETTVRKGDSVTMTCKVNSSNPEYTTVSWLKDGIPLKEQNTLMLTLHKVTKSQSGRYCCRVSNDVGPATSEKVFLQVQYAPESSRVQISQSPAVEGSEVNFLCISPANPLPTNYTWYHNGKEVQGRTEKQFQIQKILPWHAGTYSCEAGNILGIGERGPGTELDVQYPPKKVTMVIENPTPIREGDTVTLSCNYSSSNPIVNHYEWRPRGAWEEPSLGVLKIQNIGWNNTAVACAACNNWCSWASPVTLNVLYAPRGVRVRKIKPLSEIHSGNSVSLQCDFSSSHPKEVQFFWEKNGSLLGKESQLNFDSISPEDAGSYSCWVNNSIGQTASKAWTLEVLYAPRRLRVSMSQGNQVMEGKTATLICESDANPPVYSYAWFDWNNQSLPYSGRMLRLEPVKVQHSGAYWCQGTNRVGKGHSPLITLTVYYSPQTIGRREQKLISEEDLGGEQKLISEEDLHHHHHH
The test is described as follows: SPR (Biacore), mAb captured by anti-human Fc, monkey CD22.mmH (EHH59463.1) injected, 25°C.
Method: (§4) All of the binding kinetics experiments were performed at 25° C. Kinetic association (kₐ) and dissociation (kd) rate constants were determined by fitting the real-time sensorgrams to a 1:1 binding model using Scrubber 2.0c curve fitting software.

For test [7], the target named is T8, Monkey CD22.mmH (XP_005588899.1) (monkey (cyno)).
T8 construct: also called REGN5280; mfCD22.mmH
T8 chain: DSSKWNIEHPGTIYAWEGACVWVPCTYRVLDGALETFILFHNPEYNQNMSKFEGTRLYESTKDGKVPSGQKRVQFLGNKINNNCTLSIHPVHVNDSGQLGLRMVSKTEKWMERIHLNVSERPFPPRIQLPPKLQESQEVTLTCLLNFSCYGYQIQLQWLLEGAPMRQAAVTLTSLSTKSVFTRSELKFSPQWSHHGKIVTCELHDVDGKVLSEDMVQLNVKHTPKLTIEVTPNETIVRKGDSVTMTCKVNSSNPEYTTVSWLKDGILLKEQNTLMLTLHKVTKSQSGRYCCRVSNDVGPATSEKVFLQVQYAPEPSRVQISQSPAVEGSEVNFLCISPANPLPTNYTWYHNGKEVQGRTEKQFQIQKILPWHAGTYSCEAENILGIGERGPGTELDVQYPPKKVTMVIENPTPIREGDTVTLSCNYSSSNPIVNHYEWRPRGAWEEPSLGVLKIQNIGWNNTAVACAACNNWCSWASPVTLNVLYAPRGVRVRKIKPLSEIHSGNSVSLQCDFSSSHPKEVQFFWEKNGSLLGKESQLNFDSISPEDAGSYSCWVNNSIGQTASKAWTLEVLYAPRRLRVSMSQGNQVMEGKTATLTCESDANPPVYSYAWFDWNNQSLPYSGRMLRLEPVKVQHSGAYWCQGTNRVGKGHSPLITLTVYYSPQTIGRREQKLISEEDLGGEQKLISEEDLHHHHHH
The test can be described thus: SPR (Biacore), mAb captured by anti-human Fc, monkey CD22.mmH (XP_005588899.1) injected, 25°C.
Method: as §4

In general, Kd refers to the constant that tells how readily two partners part at equilibrium. What is called EC50 is the concentration giving half of the maximal effect. For orientation: t½ means the time in which the quantity being followed falls by half.

Method for hCD22.mmH: as §4
Method for hCD28.mmH: as §4
Method for human CD28 on cells: as §1, §2

B1: REGN5837 (bispecific antibody, V domains shown)
VH 1: QVQLQESGPGLVKPSETLSLTCTVSGGSISSYYWSWIRQPPGKGLEWIGYIYYSGITHYNPSLKSRVTISVDTSKIQFSLKLSSVTAADTAVYYCARWGVRRDYYYYGMDVWGQGTTVTVSS
VH 2: EVQLVQSGAEVKKPGESLKISCKGSGYNFATYWIAWVRQMPGKGLELMGIIYPGDSETTYNPSFQGQVTISADKSISNAYLQWSSLKASDTAMYYCARVGGYCSGTSCHNWFDPWGLGTLVTVSS
VL: not shown
notes: also called anti-CD22 x anti-CD28 bispecific antibody; CD22xCD28 mAb
For the molecule B1, in the test with hCD28.mmH, the “600 nM hCD28.mmH Bind (RU)” value is 72.9 RU and binding was put at a Kd of 341 nM. This molecule registered an EC50 with human CD22 on cells [1] of 13 nM. In the test with hCD22.mmH, the “90 nM hCD22.mmH Bind (RU)” value is 100 RU; the affinity, expressed as Kd, was 8.75 nM; the “t½” value was 7.8 min. In [2], the binding result is “no binding (tested: 10^-7 M)”.

B2: REGN5838 (bispecific antibody, V domains shown)
VH 1: B1 VH 1
VH 2: EVQLVESGGGLVQPGGSLKLSCAASGFTFSGSDMHWVRQASGKGLEWVGRIRNQPNSYATAYAASVKGRFTISRDDSKNTAHLQMNSLKTEDTAVYFCTRQKQVVYNYHHYYGMDVWGQGTTVTVSS
VL: not shown
notes: also called anti-CD22 x anti-CD28 bispecific antibody; CD22xCD28
Take B2: the values for the EC50 with human CD22 [3] and with human CD22 [4] were 14.9 nM and 11.4 nM, respectively.

B3: REGN5705 (antibody, V domains shown)
VH: B1 VH 1
VL: not shown
notes: also called CD28 mAb; parental CD28 antibody
For B3, the “600 nM hCD28.mmH Bind (RU)” value in the test with hCD28.mmH was 88.4 RU. The “t1/2” value in the test with hCD28.mmH stood at 2.4 min. Further, the binding result (with human CD22 on cells [5]; in test [2]) was “no binding (tested: 10^-7 M)” in each case.

B4: REGN5838 (bispecific antibody, V domains shown)
VH 1: B1 VH 1
VH 2: B2 VH 2
VL: not shown
notes: as for B1
Regarding B4, in the test with hCD28.mmH, the “600 nM hCD28.mmH Bind (RU)” value worked out at 77 RU, binding was characterised by a dissociation constant (Kd) of 404 nM and the “t1/2” value amounted to 2.3 min. Besides, the EC50 with human CD22 on cells [1] is 18 nM. In the test with hCD22.mmH, the “90 nM hCD22.mmH Bind (RU)” value was 26.7 RU, the Kd was found to be 14.3 nM and the “t½” value was 38.2 min. The response with human CD28 on cells was half-maximal at 23 nM (EC50). The binding result in test [2] is given as “no binding (tested: 10^-7 M)”.

B5: H4sH33037P2 (antibody, V domains shown)
VH: B1 VH 2
VL: not shown
notes: Anti-CD22 bivalent parental monoclonal antibody; also called mAb33037P2; CD22 mAb
As for B5, in the test with hCD22.mmH, the “90 nM hCD22.mmH Bind (RU)” value was 193 RU and the “t½” value is 7.8 min. For the same molecule, in [6], the Kd was found to be 35.6 nM and the “t1/2” value was 4 min. Moreover, in test [7], the “t1/2” value was found to be 4.3 min.

B6: H4sH33041P2 (antibody, V domains shown)
VH: B2 VH 2
VL: not shown
notes: Anti-CD22 bivalent parental monoclonal antibody; also called mAb33041P2; CD22 mAb
B6: in the test with hCD22.mmH, the “90 nM hCD22.mmH Bind (RU)” value was found to be 61.5 RU and the “t½” value turned out to be 59.8 min. Besides, in [6], the Kd is 59.2 nM and the “t1/2” value came out at 29.6 min. In addition, the “t1/2” value in test [7] is 39.8 min.
